Assays:
CHX chase, western blot = settings: control: untreated YTS-1 cells
[1] = western blot, YTS-1 cells; settings: control: untreated YTS-1 cells
[2] = IP and anti-ubiquitin western blot; settings: glycan lost; control: untreated YTS-1 cells

**Q.** For “C1GalT1 (core1 β-1,3-galactosyltransferase, T-synthase): OSMI-1”, which degradation_or_half_life (CHX chase, western blot; glycan lost) is on record?
**A.** decreases

**Q.** What about the expression_or_secretion ([1]; glycan lost) of the same substance?
**A.** decreases

**Q.** What about the “other: ubiquitination” value [2] of the same substance?
**A.** increases

**Q.** Which degradation_or_half_life (CHX chase, western blot; glycan gained) does the source give for “C1GalT1 (core1 β-1,3-galactosyltransferase, T-synthase): PugNAc” here?
**A.** increases

**Q.** What about the expression_or_secretion ([1]; glycan gained) of the same substance?
**A.** increases

— publication PMC11399441
